How the values were obtained:
[1] = target: human TIGIT (ECD)-his (human) (UniProt Q495A1); assay: SPR (BIAcore 8K), human TIGIT (ECD)-his on CM5 chip, antibody injected
TIGIT (ECD)-hFc (human) [2] = target: TIGIT (ECD)-hFc (human) (UniProt Q495A1); assay: FACS blocking assay: antibody preincubated with TIGIT (ECD)-hFc, binding to A549/human PVR cells
TIGIT (ECD)-hFc (human) [3] = target: TIGIT (ECD)-hFc (human) (UniProt Q495A1); assay: FACS blocking assay (protocol of Example 7): serially diluted antibody pre-incubated with TIGIT (ECD)-hFc, then binding of TIGIT (ECD)-hFc to A549/human PVR cells measured; blocked ligand: human PVR
TIGIT (ECD)-hFc (human) [4] = target: TIGIT (ECD)-hFc (human) (UniProt Q495A1); assay: FACS blocking assay (protocol of Example 7): serially diluted antibody pre-incubated with TIGIT (ECD)-hFc, then binding of TIGIT (ECD)-hFc to A549/human PVR cells measured; blocked ligand: human PVR [A]
[5] = target: human TIGIT (ECD)-his (human) (UniProt Q495A1); assay: ELISA, coated human TIGIT (ECD)-his (table head says FACS)
TIGIT (ECD)-hFc (human) [6] = target: TIGIT (ECD)-hFc (human) (UniProt Q495A1); assay: FACS blocking assay (protocol of Example 7): serially diluted antibody pre-incubated with TIGIT (ECD)-hFc, then binding of TIGIT (ECD)-hFc to A549/human PVR cells measured; blocked ligand: human PVR [B]

Sequence of TIGIT (ECD)-hFc (human) (Q495A1 22-141): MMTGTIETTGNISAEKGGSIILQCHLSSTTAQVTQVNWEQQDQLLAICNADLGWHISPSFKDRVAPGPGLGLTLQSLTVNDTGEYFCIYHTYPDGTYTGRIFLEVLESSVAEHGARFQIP
Sequence of human TIGIT (ECD)-his (human) (Q495A1 22-141): as above

With Tiragolumab (antibody) the Kd [1] was 1.49 pM, the EC50 (TIGIT (ECD)-hFc (human) [2]) was 42000 pM and the IC50 (read off the curve) (TIGIT (ECD)-hFc (human) [3]) was 3 µg/mL. The IC50 (read off the curve) (TIGIT (ECD)-hFc (human) [4]) was 4 µg/mL, the EC50 [5] was 160 pM and the IC50 (read off the curve) (TIGIT (ECD)-hFc (human) [6]) was 5 µg/mL.
